Laboratory results from US20240336927.

Tested on: IgG SLE S6 (anti-BC autoantibody, polyclonal) (human)
Assay: EMSA
Details: reactivity relative to BC200 RNA

Substance: U4 snRNA
- binding signal: < 5%
